Tested on: GsuI restriction endonuclease
Conditions: methylation of top strand; bottom strand 664; B+ buffer, 30 uM AdoMet, 37 C 3 h

Sequence “AGTTCTGGAGCATCGTTCACCGGTTACAAC / TGGTTGTAACCGGTAACGGATGCTCCAGAACTTCTC [duplex #1 GsuI site]” has an activity (3H radioactivity (units not stated)) of 13200.

From patent US20030040614
